Patent US20050244864A1, “Development and use of fluorescent probes of unbound analytes” (priority 2004, published 2005)

Legend:
Type in all cases: binding
[1] = Probe fluorescence ratio response to arachidonate:BSA complex, relative to ADIFAB2 (ΔR/ΔRAD2); details: fluorescence response (R-Ro) relative to ADIFAB2; arachidonate
Description: (§1) The intensity ratio (“R” value) for a given probe is determined. The ratio is calculated using the following formula: R=Fλ1/Fλ2 wherein, Fλ1, is the measured fluorescence intensities (intensity of sample with probe present minus intensity of sample without probe present) at wavelength 1 and Fλ2 is the measured fluorescence intensities (intensity of sample with probe present minus intensity of sample without probe present) at wavelength 2. Then, for a given probe, ΔR, the difference in R value between the measurement in the presence of the analyte and in the absence of the analyte, is calculated as follows: ΔR=R+analyte−R0 The ΔR value for a given probe is then compared to a reference probe, for example, ADIFAB or ADIFAB2, by ΔR/ΔRreference. This value is an indication of how dissimilar the new probe (derived by mutation of the template) is to the reference. By this method, probes with new and useful characteristics may be identified. Measurements of fluorescence intensities are obtained using standard techniques.
(§2) Mutant probes were screened in 96-well plates by fluorescence response to five fatty acids: arachidonate, linolenate, linoleate, oleate, and palmitate. Each fatty acid was prepared as a complex with BSA by slow addition of 50 mM stocks of fatty acid sodium salts at pH 11 to 600 μM BSA in HEPES buffer. During the formation of complexes, 15 μL aliquots were periodically measured with the reference probe, ADIFAB2, to determine the ΔR value upon excitation at 375 nm and fluorescence emission at 550 and 457 nm using a Fluorolog-3 spectrofluorometer (Jobin Yvon) (Richieri et al, Molecular and Cellular Biochemistry (1999), 192:87-94 & Richieri et al, J. Biol. Chem. (1996), 271:31068-31074). Complexes were prepared such that the final ΔR was approximately 0.4 which correspond to [FFAu] ranging from 100 to 1000 nM depending on FFA type. These complexes buffer or clamp the FFAu levels at fixed values and therefore ensure the accurate comparison of different probes with the same FFAu concentrations. In contrast, addition of FFAu alone (i.e. uncomplexed FFA) introduces considerable uncertainty in comparing different probes because the FFAu level will be affected by binding to the dispensing device, the walls of the multi-well plates and to the probe itself. Thus, the terms “buffer” and “clamp” as used in this particular context herein are taken to mean the ability of a carrier macromolecule to complex with an unbound metabolite so that the unbound metabolite is presented accurately for measurement purposes and is prevented from non-specific binding such as binding to laboratory apparatus.
(§3) Plates were prepared and read in two stages. First, complexes and fatty acid free BSA were diluted to 6 μM BSA in HEPES and added to the 96-well plate at 300 μL per well. A MultiProbe II HT (Perkin Elmer) (an automated liquid handling system) was used to facilitate plate preparation for high throughput screening, but any automated or manual pipetting system will suffice. The background fluorescence was then measured at the same wavelengths as used for ADIFAB2 using a Fluorolog-3 spectrofluorometer with an external Micromax 384 fluorescence plate reader (Jobin Yvon). In the second stage, 30 μL aliquots of the mutant probes were added to multiple wells of the plate, one for each fatty acid and one with fatty acid free BSA only, and the fluorescence intensity at each wavelength was again measured on the plate reader. After subtraction of the background fluorescence, the fluorescence ratio of each well was calculated.
(§4) The fluorescence response was quantitatively compared to ADIFAB2 to search for changes in magnitude and fatty acid profile; for example the response to one fatty acid relative to another. For each probe the ratio differences (AR) between wells with each fatty acid compared to a corresponding well with fatty acid free BSA were recorded. […]

[2] = Probe fluorescence ratio response to linolenate:BSA complex, relative to ADIFAB2 (ΔR/ΔRAD2); details: fluorescence response (R-Ro) relative to ADIFAB2; linolenate
Description: as §1, §2, §3, §4

[3] = Probe fluorescence ratio response to palmitate:BSA complex, relative to ADIFAB2 (ΔR/ΔRAD2); details: fluorescence response (R-Ro) relative to ADIFAB2; palmitate
Description: as §1, §2, §3, §4

[4] = Probe fluorescence ratio response to oleate:BSA complex, relative to ADIFAB2 (ΔR/ΔRAD2); details: fluorescence response (R-Ro) relative to ADIFAB2; oleate
Description: as §1, §2, §3, §4

[5] = Probe fluorescence ratio response to linoleate:BSA complex, relative to ADIFAB2 (ΔR/ΔRAD2); details: fluorescence response (R-Ro) relative to ADIFAB2; linoleate
Description: as §1, §2, §3, §4

Row | Molecule | ΔR/ΔRAD2 AA [1] | ΔR/ΔRAD2 LNA [2] | ΔR/ΔRAD2 PA [3] | ΔR/ΔRAD2 OA [4] | ΔR/ΔRAD2 LA [5]
1 | A73I, L72A: acrylodan-labeled rI-FABP mutein A73I, L72A (protein) AFDGTWKVDRNENYEKFMEKMGINVVKRKLGAHDNLKLTITQEGNKFTVKESSNFRNIDVVFELGVDFAYSAIDGTELTGTWTMEGNKLVGKFKRVDNGKELIAVREISGNELIQTYTYEGVEAKRIFKKE | 0.38 | 0.03 | −0.04 | −0.04 | −0.04
2 | L1P7 B11: acrylodan-labeled rI-FABP mutein: Y14 I, L38 I, L72 V, Y117 wt (protein, UniProt P02693 2-132, looked up, variant Y14I L38I L72V, acrylodan label, acrylodan-labeled rI-FABP mutein: Y14 I, L38 I, L72 V, Y117 wt) Fatty acid-binding protein, …: AFDGTWKVDRNENIEKFMEKMGINVVKRKLGAHDNLKITITQEGNKFTVKESSNFRNIDVVFELGVDFAYSVADGTELTGTWTMEGNKLVGKFKRVDNGKELIAVREISGNELIQTYTYEGVEAKRIFKKE | 0.7 | 0.9 | 0.8 | 0.4 | 0.9
3 | L1P3 D6: acrylodan-labeled rI-FABP mutein: Y14 L, L38 wt, L72 wt, Y117 wt (protein, UniProt P02693 2-132, looked up, variant Y14L, acrylodan label) Fatty acid-binding protein, …: AFDGTWKVDRNENLEKFMEKMGINVVKRKLGAHDNLKLTITQEGNKFTVKESSNFRNIDVVFELGVDFAYSLADGTELTGTWTMEGNKLVGKFKRVDNGKELIAVREISGNELIQTYTYEGVEAKRIFKKE | 0.9 | 0.9 | 0.5 | 0.5 | 0.8
4 | L1P1 F7: acrylodan-labeled rI-FABP mutein: Y14 L, L38 M, L72 wt, Y117 F (protein, UniProt P02693 2-132, looked up, variant Y14L L38M Y117F, acrylodan label, acrylodan-labeled rI-FABP mutein: Y14 L, L38 M, L72 wt, Y117 F) Fatty acid-binding protein, …: AFDGTWKVDRNENLEKFMEKMGINVVKRKLGAHDNLKMTITQEGNKFTVKESSNFRNIDVVFELGVDFAYSLADGTELTGTWTMEGNKLVGKFKRVDNGKELIAVREISGNELIQTFTYEGVEAKRIFKKE | 0.9 | 1.0 | 0.5 | 0.5 | 0.9
5 | L1P12 F12: acrylodan-labeled rI-FABP mutein: Y14 L, L38 wt, L72 G, Y117 V (protein, UniProt P02693 2-132, looked up, variant Y14L L72G Y117V, acrylodan label, acrylodan-labeled rI-FABP mutein: Y14 L, L38 wt, L72 G, Y117 V) Fatty acid-binding protein, …: AFDGTWKVDRNENLEKFMEKMGINVVKRKLGAHDNLKLTITQEGNKFTVKESSNFRNIDVVFELGVDFAYSGADGTELTGTWTMEGNKLVGKFKRVDNGKELIAVREISGNELIQTVTYEGVEAKRIFKKE | 0.9 | 0.5 | 0.1 | 0.3 | 0.5
6 | L1P9 G10: acrylodan-labeled rI-FABP mutein: Y14 wt, L38 I, L72 G, Y117 wt (protein, UniProt P02693 2-132, looked up, variant L38I L72G, acrylodan label) Fatty acid-binding protein, …: AFDGTWKVDRNENYEKFMEKMGINVVKRKLGAHDNLKITITQEGNKFTVKESSNFRNIDVVFELGVDFAYSGADGTELTGTWTMEGNKLVGKFKRVDNGKELIAVREISGNELIQTYTYEGVEAKRIFKKE | 1.0 | 0.7 | 0.4 | 0.9 | 0.8
7 | L1P11 F12: acrylodan-labeled rI-FABP mutein: Y14 L, L38 I, L72 wt, Y117 wt (protein, UniProt P02693 2-132, looked up, variant Y14L L38I, acrylodan label) Fatty acid-binding protein, …: AFDGTWKVDRNENLEKFMEKMGINVVKRKLGAHDNLKITITQEGNKFTVKESSNFRNIDVVFELGVDFAYSLADGTELTGTWTMEGNKLVGKFKRVDNGKELIAVREISGNELIQTYTYEGVEAKRIFKKE | 1.0 | 1.2 | 0.7 | 0.7 | 1.1
8 | L1P12 G10: acrylodan-labeled rI-FABP mutein: Y14 I, L38 wt, L72 wt, Y117 wt (protein, UniProt P02693 2-132, looked up, variant Y14I, acrylodan label) Fatty acid-binding protein, …: AFDGTWKVDRNENIEKFMEKMGINVVKRKLGAHDNLKLTITQEGNKFTVKESSNFRNIDVVFELGVDFAYSLADGTELTGTWTMEGNKLVGKFKRVDNGKELIAVREISGNELIQTYTYEGVEAKRIFKKE | 0.8 | 1.0 | 0.8 | 0.5 | 0.9
9 | L1P14 A9: acrylodan-labeled rI-FABP mutein: Y14 L, L38 wt, L72 G, Y117 I (protein, UniProt P02693 2-132, looked up, variant Y14L L72G Y117I, acrylodan label, acrylodan-labeled rI-FABP mutein: Y14 L, L38 wt, L72 G, Y117 I) Fatty acid-binding protein, …: AFDGTWKVDRNENLEKFMEKMGINVVKRKLGAHDNLKLTITQEGNKFTVKESSNFRNIDVVFELGVDFAYSGADGTELTGTWTMEGNKLVGKFKRVDNGKELIAVREISGNELIQTITYEGVEAKRIFKKE | 0.8 | 0.8 | 0.2 | 0.4 | 0.8
10 | L1P17 A8: acrylodan-labeled rI-FABP mutein: Y14 wt, L38 M, L72 G, Y117 F (protein, UniProt P02693 2-132, looked up, variant L38M L72G Y117F, acrylodan label, acrylodan-labeled rI-FABP mutein: Y14 wt, L38 M, L72 G, Y117 F) Fatty acid-binding protein, …: AFDGTWKVDRNENYEKFMEKMGINVVKRKLGAHDNLKMTITQEGNKFTVKESSNFRNIDVVFELGVDFAYSGADGTELTGTWTMEGNKLVGKFKRVDNGKELIAVREISGNELIQTFTYEGVEAKRIFKKE | 1.3 | 0.7 | 0.4 | 0.7 | 0.8
11 | L1P2 F7: acrylodan-labeled rI-FABP mutein: Y14 I, L38 wt, L72 G, Y117 V (protein, UniProt P02693 2-132, looked up, variant Y14I L72G Y117V, acrylodan label, acrylodan-labeled rI-FABP mutein: Y14 I, L38 wt, L72 G, Y117 V) Fatty acid-binding protein, …: AFDGTWKVDRNENIEKFMEKMGINVVKRKLGAHDNLKLTITQEGNKFTVKESSNFRNIDVVFELGVDFAYSGADGTELTGTWTMEGNKLVGKFKRVDNGKELIAVREISGNELIQTVTYEGVEAKRIFKKE | 0.9 | 0.5 | 0.1 | 0.3 | 0.6
